Reference: the supplement of paper PMC10724198
± gives the standard deviation of the averaged measurements.

Key:
Saccharomyces cerevisiae [1] = test: protein stability index of tFT-peptide fusion (C-terminal peptide) (PSI (0-1 scale)); higher = more stable (slower turnover)
Procedure: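 MPS profiling in S. cerevisiae of the tFT-X12 degron library: putative degron peptides plus stable controls, 12 aa, fused to the C-terminus of a sfGFP-mCherry timer. Cells are FACS-sorted into 8 mCherry/sfGFP bins and deep-sequenced. PSI runs from 0 (unstable) to 1 (stable). Backgrounds are wild type, das1Δ and doa10Δ at 30 °C, and wild type, das1Δ, cdc34-1 and cdc53-1 at 37 °C; 2-3 technical replicates each.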

Saccharomyces cerevisiae [2] = test: as above; details: genetic background: wild type; temperature: 30 C
[3] = genetic background: cdc34-1, temperature: 37 C
[4] = genetic background: cdc53-1, temperature: 37 C
[5] = genetic background: das1 deletion, temperature: 30 C
[6] = genetic background: das1 deletion, temperature: 37 C
[7] = genetic background: doa10 deletion, temperature: 30 C
[8] = genetic background: wild type, temperature: 30 C
[9] = genetic background: wild type, temperature: 37 C
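Note: PSI is a weighted mean of sequencing reads over stability bins, variants kept only with over 10 reads, mCherry proximal and sfGFP distal, peptide attached via GGGS linker.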

Sequence	protein stability index (Saccharomyces cerevisiae [1]; [3])	protein stability index (Saccharomyces cerevisiae [1]; [4])	protein stability index (Saccharomyces cerevisiae [1]; [5])	protein stability index (Saccharomyces cerevisiae [1]; [6])	protein stability index (Saccharomyces cerevisiae [1]; [7])	protein stability index (Saccharomyces cerevisiae [1]; [8])	protein stability index (Saccharomyces cerevisiae [1]; [9])	protein stability index (Saccharomyces cerevisiae [2])
VFVFLFVFLFLL	0.147 ± 0.03	0.138 ± 0.041	0.214 ± 0.047	0.313 ± 0.013	0.397 ± 0.098	0.2 ± 0.038	0.253 ± 0.015	0.177 ± 0.043
LVFPPVPSLVLC	0.261 ± 0.018	0.278 ± 0.0066	0.277 ± 0.036	0.376 ± 0.013	0.192 ± 0.0059	0.223 ± 0.029	0.3099 ± 0.0013	0.352 ± 0.0088
MALAVRVVICGA	0.0365 ± 0.01	0.11 ± 0.097	0.134 ± 0.015	0.172 ± 0.011	0.103 ± 0.012	0.107 ± 0.019	0.134 ± 0.026	0.169 ± 0.0098
FLGVFFYFLLCV	0.235 ± 0.02	0.2583 ± 0.002	0.254 ± 0.026	0.35871 ± 0.00032	0.2529 ± 0.0012	0.239 ± 0.013	0.326 ± 0.0064	0.379 ± 0.03
FGFSFLHLFIFF	0.429 ± 0.051	0.395 ± 0.028	0.375 ± 0.033	0.519 ± 0.03	0.443 ± 0.011	0.313 ± 0.038	0.457 ± 0.013	0.399 ± 0.035
TIYGYEVTRKIG	0.645 ± 0.068	0.78 ± 0.025	0.621 ± 0.019	0.732 ± 0.031	0.0795 ± 0.011	0.11 ± 0.021	0.145 ± 0.018	0.155 ± 0.0023
VVVYWGSLKRVC	0.5772 ± 0.0046	0.669 ± 0.012	0.584 ± 0.02	0.7 ± 0.0057	0.104 ± 0.0089	0.117 ± 0.027	0.289 ± 0.0064	0.263 ± 0.041
NCMGLLMPLLIT	0.437 ± 0.024	0.391 ± 0.0086	0.378 ± 0.039	0.504 ± 0.019	0.2688 ± 0.00028	0.254 ± 0.037	0.382 ± 0.012	0.353 ± 0.0039
SLARPGLCFVIA	0.534 ± 0.002	0.583 ± 0.018	0.356 ± 0.029	0.569 ± 0.011	0.311 ± 0.019	0.342 ± 0.026	0.543 ± 0.029	0.417 ± 0.034
GRVETIEFLFLR	0.455 ± 0.0049	0.4335 ± 0.0015	0.368 ± 0.038	0.525 ± 0.0074	0.656 ± 0.012	0.394 ± 0.044	0.508 ± 0.022	0.464 ± 0.025
SRRSIGAYLFVS	0.693 ± 0.053	0.761 ± 0.029	0.635 ± 0.039	0.768 ± 0.031	0.178 ± 0.013	0.208 ± 0.018	0.411 ± 0.025	0.339 ± 0.026
GDSVRVIIFCLN	0.465 ± 0.041	0.707 ± 0.086	0.339 ± 0.054	0.686 ± 0.068	0.119 ± 0.02	0.136 ± 0.027	0.1273 ± 0.00068	0.304 ± 0.081
WQVPYQRLAILF	0.603 ± 0.021	0.656 ± 0.017	0.555 ± 0.03	0.681 ± 0.016	0.215 ± 0.017	0.247 ± 0.02	0.346 ± 0.011	0.309 ± 0.017
KRRKERIKIQQI	0.628 ± 0.037	0.715 ± 0.041	0.634 ± 0.073	0.737 ± 0.089	0.122 ± 0.0062	0.168 ± 0.046	0.28 ± 0.0094	0.261 ± 0.062
KVGPVLLLCRRS	0.6524 ± 0.00046	0.68 ± 0.023	0.637 ± 0.013	0.699 ± 0.0081	0.621 ± 0.019	0.628 ± 0.028	0.69 ± 0.0066	0.445 ± 0.0089
VPRSLYSVLRLA	0.525 ± 0.062	0.685 ± 0.026	0.652 ± 0.044	0.714 ± 0.012	0.0744 ± 0.01	0.0833 ± 0.0025	0.11 ± 0.0054	0.2 ± 0.025
AFPVGFLVGLVV	0.4381 ± 0.0028	0.469 ± 0.011	0.345 ± 0.024	0.499 ± 0.0067	0.319 ± 0.0075	0.348 ± 0.021	0.4647 ± 0.0044	0.431 ± 0.0065
GQFVISVRFLYE	0.454 ± 0.045	0.503 ± 0.044	0.412 ± 0.024	0.5374 ± 0.0031	0.389 ± 0.0083	0.417 ± 0.024	0.516 ± 0.011	0.515 ± 0.068
RLSTTTTKQFIH	0.668 ± 0.016	0.74 ± 0.013	0.661 ± 0.045	0.753 ± 0.021	0.302 ± 0.0053	0.348 ± 0.022	0.58 ± 0.011	0.4902 ± 0.0011
VVMASSIIVVAG	0.0539 ± 0.0055	0.0512 ± 0.027	0.11 ± 0.097	0.216 ± 0.0022	0.105 ± 0.029	0.142 ± 0.058	0.167 ± 0.027	0.2528 ± 0.001

Sequence	protein stability index (Saccharomyces cerevisiae [1]; [3])	protein stability index (Saccharomyces cerevisiae [1]; [4])	protein stability index (Saccharomyces cerevisiae [1]; [5])	protein stability index (Saccharomyces cerevisiae [1]; [6])	protein stability index (Saccharomyces cerevisiae [1]; [7])	protein stability index (Saccharomyces cerevisiae [1]; [8])	protein stability index (Saccharomyces cerevisiae [1]; [9])	protein stability index (Saccharomyces cerevisiae [2])
VNTLCCVFRCNL	0.96 ± 0.0047	0.9524 ± 0.0023	0.816 ± 0.013	0.889 ± 0.026	0.8247 ± 0.0043	0.826 ± 0.028	0.8905 ± 0.0035	0.805 ± 0.045
FVLFCWFFCIVW	0.293 ± 0.019	0.326 ± 0.029	0.263 ± 0.011	0.3625 ± 0.00095	0.286 ± 0.032	0.226 ± 0.033	0.342 ± 0.012	0.273 ± 0.043
LPPFRFSLPFRR	0.692 ± 0.044	0.7531 ± 0.0018	0.671 ± 0.013	0.705 ± 0.023	0.64 ± 0.024	0.658 ± 0.019	0.71 ± 0.036	0.712 ± 0.019
WFIPRSVCRWLF	0.515 ± 0.067	0.684 ± 0.028	0.611 ± 0.023	0.676 ± 0.033	0.0895 ± 0.017	0.0735 ± 0.026	0.116 ± 0.023	0.135 ± 0.0067
PLRRPSWVVLSS	0.671 ± 0.024	0.7218 ± 0.0037	0.638 ± 0.014	0.727 ± 0.0099	0.357 ± 0.024	0.38 ± 0.029	0.5802 ± 0.0041	0.493 ± 0.0029
RRRNQAAHLYSH	0.617 ± 0.024	0.694 ± 0.044	0.67 ± 0.023	0.708 ± 0.0077	0.139 ± 0.022	0.159 ± 0.024	0.348 ± 0.011	0.268 ± 0.013
RGCFVLRKTHLL	0.635 ± 0.0083	0.715 ± 0.017	0.645 ± 0.018	0.7323 ± 0.0044	0.126 ± 0.0097	0.152 ± 0.014	0.275 ± 0.0075	0.254 ± 0.0058
FPFFFLSILSAV	0.262 ± 0.015	0.2944 ± 0.0028	0.256 ± 0.037	0.383 ± 0.0098	0.11 ± 0.0067	0.122 ± 0.023	0.168 ± 0.0078	0.177 ± 0.019
PWGVGLACLFLL	0.469 ± 0.017	0.683 ± 0.016	0.585 ± 0.017	0.736 ± 0.022	0.0882 ± 0.025	0.096 ± 0.017	0.1134 ± 0.00036	0.126 ± 0.025
SFRIWLFRFFFV	0.6 ± 0.034	0.669 ± 0.034	0.555 ± 0.047	0.651 ± 0.008	0.364 ± 0.025	0.372 ± 0.016	0.541 ± 0.032	0.407 ± 0.018
RICACHGIRFIP	0.7111 ± 0.0033	0.742 ± 0.0023	0.637 ± 0.04	0.774 ± 0.051	0.3558 ± 0.0018	0.392 ± 0.032	0.617 ± 0.016	0.444 ± 0.064
ALPLRSNILSVF	0.446 ± 0.019	0.489 ± 0.037	0.344 ± 0.031	0.506 ± 0.0091	0.242 ± 0.01	0.283 ± 0.023	0.45 ± 0.011	0.3795 ± 0.0028
SYVFCYICGVQS	0.607 ± 0.038	0.592 ± 0.025	0.411 ± 0.03	0.596 ± 0.015	0.338 ± 0.031	0.372 ± 0.018	0.552 ± 0.025	0.428 ± 0.06
HHRLRQGLRRIN	0.64 ± 0.039	0.7278 ± 0.0055	0.638 ± 0.0082	0.7023 ± 0.003	0.251 ± 0.0034	0.293 ± 0.0082	0.5161 ± 0.0011	0.462 ± 0.014
ACVRFPLVLVVF	0.0242 ± 0.0039	0.0448 ± 0.015	0.0965 ± 0.018	0.0904 ± 0.0059	0.0902 ± 0.022	0.0825 ± 0.029	0.0644 ± 0.0039	0.147 ± 0.014
WSFYVVGRLLVN	0.33 ± 0.031	0.383 ± 0.013	0.287 ± 0.024	0.45 ± 0.014	0.106 ± 0.0031	0.132 ± 0.0018	0.154 ± 0.015	0.124 ± 0.0045
VVFVGRSIVVLT	0.508 ± 0.019	0.525 ± 0.014	0.358 ± 0.038	0.567 ± 0.019	0.336 ± 0.037	0.371 ± 0.03	0.519 ± 0.019	0.419 ± 0.047
FFVWGVFLGVSW	0.229 ± 0.033	0.264 ± 0.016	0.265 ± 0.043	0.406 ± 0.005	0.297 ± 0.015	0.25 ± 0.026	0.362 ± 0.0063	0.358 ± 0.012
ICIFWLITGLWL	0.465 ± 0.074	0.459 ± 0.026	0.336 ± 0.03	0.487 ± 0.019	0.304 ± 0.014	0.324 ± 0.013	0.4633 ± 0.0029	0.3884 ± 0.00079
